Measurements reported in patent publication US20200383917A1 (NORTHWESTERN UNIVERSITY, published 2020).
Ends that are not written are not given here.

Biological target: T1, CD11c on the surface of mouse bone marrow-derived dendritic cells (BMDCs) (mouse, UniProt Q9QXH4 20-1169)
T1 sequence (looked up): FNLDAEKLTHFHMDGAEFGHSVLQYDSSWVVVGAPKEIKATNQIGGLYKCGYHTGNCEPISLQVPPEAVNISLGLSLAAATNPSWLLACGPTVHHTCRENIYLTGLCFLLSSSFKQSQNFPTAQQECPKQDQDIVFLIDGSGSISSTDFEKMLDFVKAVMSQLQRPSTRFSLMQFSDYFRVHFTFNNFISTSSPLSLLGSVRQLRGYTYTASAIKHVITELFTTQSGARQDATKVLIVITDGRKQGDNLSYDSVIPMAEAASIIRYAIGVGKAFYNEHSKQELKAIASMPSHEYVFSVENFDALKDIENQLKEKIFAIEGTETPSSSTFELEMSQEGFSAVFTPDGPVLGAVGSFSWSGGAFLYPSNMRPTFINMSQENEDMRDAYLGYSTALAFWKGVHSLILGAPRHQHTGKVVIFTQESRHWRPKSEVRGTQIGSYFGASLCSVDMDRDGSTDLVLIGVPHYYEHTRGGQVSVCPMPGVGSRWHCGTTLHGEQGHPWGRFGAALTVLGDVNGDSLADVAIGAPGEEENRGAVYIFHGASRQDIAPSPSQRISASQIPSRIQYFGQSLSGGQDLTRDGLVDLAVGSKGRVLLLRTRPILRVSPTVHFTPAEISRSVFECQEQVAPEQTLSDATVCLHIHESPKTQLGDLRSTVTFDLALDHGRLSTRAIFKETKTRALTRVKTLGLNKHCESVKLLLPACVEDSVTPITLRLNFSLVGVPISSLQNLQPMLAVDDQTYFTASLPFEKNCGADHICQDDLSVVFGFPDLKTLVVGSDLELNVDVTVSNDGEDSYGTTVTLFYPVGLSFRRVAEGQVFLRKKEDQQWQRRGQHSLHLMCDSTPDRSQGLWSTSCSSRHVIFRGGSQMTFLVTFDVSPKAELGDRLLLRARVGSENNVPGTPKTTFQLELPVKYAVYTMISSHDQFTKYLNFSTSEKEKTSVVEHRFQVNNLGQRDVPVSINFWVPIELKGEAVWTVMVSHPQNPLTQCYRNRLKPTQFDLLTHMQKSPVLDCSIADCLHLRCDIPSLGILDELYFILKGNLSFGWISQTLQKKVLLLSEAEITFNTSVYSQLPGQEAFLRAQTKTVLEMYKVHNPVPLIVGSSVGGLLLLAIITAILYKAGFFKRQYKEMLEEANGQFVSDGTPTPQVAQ
Test: cell-based or functional assay

B1: P-D2-PEG5-PS (PEG-bl-PPS polymersome displaying the P-D2-PEG5-Lys-PA targeting peptide construct) (peptide)
peptide: GGVTLTYQFAAGPRDK
modifications: not fully specified (N-terminus); also: displayed on PEG-bl-PPS polymersome
- cellular uptake by BMDCs (flow cytometry, nile red-loaded PS, 1 h incubation): > 3 fold
